How the values were obtained:
[1] = molecular target: T1, Cin5 (Saccharomyces cerevisiae) (UniProt P40917); conditions: 100 nM
T1 sequence: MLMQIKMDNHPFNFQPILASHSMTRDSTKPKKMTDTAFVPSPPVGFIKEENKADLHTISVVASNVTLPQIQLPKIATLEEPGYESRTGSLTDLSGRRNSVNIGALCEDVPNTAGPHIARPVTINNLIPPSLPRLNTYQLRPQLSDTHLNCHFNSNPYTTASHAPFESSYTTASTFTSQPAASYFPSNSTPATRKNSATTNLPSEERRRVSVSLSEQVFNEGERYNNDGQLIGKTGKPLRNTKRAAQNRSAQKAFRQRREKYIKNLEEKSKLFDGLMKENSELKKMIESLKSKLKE

[2] = molecular target: T2, Cad1 (Saccharomyces cerevisiae) (UniProt P24813); conditions: 100 nM
T2 sequence: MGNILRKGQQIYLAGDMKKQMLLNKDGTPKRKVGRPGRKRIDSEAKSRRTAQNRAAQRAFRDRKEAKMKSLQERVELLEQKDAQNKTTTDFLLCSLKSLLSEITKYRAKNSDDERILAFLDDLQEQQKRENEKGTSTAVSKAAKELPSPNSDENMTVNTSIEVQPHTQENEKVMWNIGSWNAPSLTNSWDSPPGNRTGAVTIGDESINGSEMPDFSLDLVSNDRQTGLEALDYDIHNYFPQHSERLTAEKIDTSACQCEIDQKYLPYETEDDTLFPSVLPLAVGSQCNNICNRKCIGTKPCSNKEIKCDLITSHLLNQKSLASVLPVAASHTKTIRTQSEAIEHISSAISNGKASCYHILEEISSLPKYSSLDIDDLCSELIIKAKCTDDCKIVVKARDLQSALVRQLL

[3] = molecular target: T3, Yer184c (Saccharomyces cerevisiae) (UniProt P39961); conditions: 100 nM
T3 sequence: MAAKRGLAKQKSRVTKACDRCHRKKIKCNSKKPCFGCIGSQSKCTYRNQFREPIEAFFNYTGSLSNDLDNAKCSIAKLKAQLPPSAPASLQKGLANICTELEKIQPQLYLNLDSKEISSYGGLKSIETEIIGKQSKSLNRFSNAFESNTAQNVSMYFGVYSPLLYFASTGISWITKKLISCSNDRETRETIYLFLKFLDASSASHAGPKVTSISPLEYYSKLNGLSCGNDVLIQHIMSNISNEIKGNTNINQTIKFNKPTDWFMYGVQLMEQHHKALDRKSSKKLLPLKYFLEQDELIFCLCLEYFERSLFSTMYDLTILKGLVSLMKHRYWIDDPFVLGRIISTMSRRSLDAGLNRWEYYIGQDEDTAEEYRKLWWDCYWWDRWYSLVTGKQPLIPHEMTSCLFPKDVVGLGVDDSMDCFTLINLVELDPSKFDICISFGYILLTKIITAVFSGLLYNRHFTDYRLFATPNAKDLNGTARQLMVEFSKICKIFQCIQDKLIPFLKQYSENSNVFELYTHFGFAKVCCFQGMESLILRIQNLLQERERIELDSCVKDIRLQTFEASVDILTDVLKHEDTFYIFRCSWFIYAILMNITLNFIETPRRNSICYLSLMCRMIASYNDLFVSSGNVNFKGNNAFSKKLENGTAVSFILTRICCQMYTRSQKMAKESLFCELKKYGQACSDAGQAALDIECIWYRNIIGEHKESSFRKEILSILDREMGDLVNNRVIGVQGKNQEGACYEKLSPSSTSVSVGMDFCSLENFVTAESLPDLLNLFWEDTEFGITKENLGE

[4] = molecular target: T4, Yap3 (Saccharomyces cerevisiae) (UniProt P38749); conditions: 100 nM
T4 sequence: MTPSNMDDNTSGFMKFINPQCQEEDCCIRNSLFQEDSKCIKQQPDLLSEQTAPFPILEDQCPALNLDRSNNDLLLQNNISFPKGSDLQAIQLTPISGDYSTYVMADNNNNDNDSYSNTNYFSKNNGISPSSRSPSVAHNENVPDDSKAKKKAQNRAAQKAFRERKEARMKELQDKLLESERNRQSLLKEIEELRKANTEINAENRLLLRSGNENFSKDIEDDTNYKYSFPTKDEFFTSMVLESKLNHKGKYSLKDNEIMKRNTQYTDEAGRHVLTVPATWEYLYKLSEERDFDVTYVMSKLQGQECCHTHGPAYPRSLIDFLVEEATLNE

[5] = molecular target: T5, Sko1 (Saccharomyces cerevisiae) (UniProt Q02100); conditions: 200 nM
T5 sequence: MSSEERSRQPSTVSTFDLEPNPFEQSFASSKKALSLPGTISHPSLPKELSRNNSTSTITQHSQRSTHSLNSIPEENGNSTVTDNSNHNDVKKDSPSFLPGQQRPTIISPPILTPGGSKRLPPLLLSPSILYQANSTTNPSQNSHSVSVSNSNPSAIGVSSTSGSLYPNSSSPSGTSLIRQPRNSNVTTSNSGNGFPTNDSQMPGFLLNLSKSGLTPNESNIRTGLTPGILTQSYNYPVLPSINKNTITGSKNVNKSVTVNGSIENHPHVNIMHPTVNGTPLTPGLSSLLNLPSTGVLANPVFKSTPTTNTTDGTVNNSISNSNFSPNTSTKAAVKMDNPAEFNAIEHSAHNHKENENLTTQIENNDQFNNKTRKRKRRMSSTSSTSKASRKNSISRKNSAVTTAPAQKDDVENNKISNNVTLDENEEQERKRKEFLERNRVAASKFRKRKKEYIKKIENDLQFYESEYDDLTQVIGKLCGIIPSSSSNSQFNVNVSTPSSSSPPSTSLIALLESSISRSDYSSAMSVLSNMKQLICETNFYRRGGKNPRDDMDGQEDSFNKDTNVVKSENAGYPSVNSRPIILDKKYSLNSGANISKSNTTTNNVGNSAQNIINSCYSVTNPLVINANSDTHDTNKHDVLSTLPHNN

[6] = molecular target: T6, Sut1 (Saccharomyces cerevisiae) (UniProt P53032); conditions: 200 nM
T6 sequence: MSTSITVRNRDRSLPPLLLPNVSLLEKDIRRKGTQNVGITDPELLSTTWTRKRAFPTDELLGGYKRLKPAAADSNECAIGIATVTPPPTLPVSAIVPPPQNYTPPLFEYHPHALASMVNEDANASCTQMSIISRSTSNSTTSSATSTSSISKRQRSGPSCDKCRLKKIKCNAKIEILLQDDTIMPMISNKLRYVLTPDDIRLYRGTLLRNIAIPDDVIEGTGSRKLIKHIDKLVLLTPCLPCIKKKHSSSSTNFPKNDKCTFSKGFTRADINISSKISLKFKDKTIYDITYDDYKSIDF

[7] = molecular target: T7, Pdr3 (Saccharomyces cerevisiae) (UniProt P33200); conditions: 200 nM
T7 sequence: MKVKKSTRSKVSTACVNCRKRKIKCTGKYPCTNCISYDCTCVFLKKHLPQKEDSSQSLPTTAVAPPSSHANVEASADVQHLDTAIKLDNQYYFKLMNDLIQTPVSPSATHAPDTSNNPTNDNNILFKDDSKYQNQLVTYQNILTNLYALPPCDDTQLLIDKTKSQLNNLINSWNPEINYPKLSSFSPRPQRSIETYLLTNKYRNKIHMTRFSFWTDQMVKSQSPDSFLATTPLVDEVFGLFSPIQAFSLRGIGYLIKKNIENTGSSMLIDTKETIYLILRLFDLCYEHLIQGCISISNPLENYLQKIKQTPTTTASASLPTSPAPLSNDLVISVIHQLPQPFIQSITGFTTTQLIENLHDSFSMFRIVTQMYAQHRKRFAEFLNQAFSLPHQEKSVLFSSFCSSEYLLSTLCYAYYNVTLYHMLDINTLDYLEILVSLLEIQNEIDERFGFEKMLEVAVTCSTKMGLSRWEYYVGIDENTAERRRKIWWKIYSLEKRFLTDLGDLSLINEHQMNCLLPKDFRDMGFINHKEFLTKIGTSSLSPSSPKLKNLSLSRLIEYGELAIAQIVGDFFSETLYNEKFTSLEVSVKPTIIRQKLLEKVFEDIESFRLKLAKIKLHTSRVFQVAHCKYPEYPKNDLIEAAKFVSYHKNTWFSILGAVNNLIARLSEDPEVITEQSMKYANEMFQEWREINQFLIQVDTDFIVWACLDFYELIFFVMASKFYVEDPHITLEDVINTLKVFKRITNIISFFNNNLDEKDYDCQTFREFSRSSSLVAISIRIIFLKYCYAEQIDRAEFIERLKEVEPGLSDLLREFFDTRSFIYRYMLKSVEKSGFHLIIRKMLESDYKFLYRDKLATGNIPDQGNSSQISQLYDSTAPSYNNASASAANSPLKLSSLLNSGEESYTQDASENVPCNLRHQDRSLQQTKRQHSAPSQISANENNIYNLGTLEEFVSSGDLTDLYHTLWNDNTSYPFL

Row | Sequence | binding signal (PBM E-score (-0.5 to 0.5)) [1] | binding signal (PBM E-score (-0.5 to 0.5)) [3] | other results
1 | TTATATAA (double strand) [8-mer TTATATAA] | 0.456 | – | –
2 | CGTAAGCA (double strand) [8-mer CGTAAGCA] | 0.463 | – | –
3 | CTTACTAA (double strand) [8-mer CTTACTAA] | – | – | binding signal (PBM E-score (-0.5 to 0.5)) [2]: 0.484
4 | CCGGCCGG (double strand) [8-mer CCGGCCGG] | – | 0.486 | –
5 | TTACCTAA (double strand) [8-mer TTACCTAA] | 0.451 | – | –
6 | ATTAGTAA (double strand) [8-mer ATTAGTAA] | – | – | binding signal (PBM E-score (-0.5 to 0.5)) [2]: 0.49; binding signal (PBM E-score (-0.5 to 0.5)) [4]: 0.487
7 | CTGACTAA (double strand) [8-mer CTGACTAA] | – | – | binding signal (PBM E-score (-0.5 to 0.5)) [2]: 0.488
8 | GCCGCGGC (double strand) [8-mer GCCGCGGC] | – | 0.475 | –
9 | TTACGTAA (double strand) [8-mer TTACGTAA] | 0.497 | – | binding signal (PBM E-score (-0.5 to 0.5)) [2]: 0.48; binding signal (PBM E-score (-0.5 to 0.5)) [5]: 0.496; binding signal (PBM E-score (-0.5 to 0.5)) [4]: 0.496
10 | TCGGCCGA (double strand) [8-mer TCGGCCGA] | – | 0.473 | –
11 | CGCCGGCG (double strand) [8-mer CGCCGGCG] | – | 0.485 | –
12 | TGACGTAA (double strand) [8-mer TGACGTAA] | 0.453 | – | binding signal (PBM E-score (-0.5 to 0.5)) [5]: 0.498
13 | ACGTAATA (double strand) [8-mer ACGTAATA] | 0.455 | – | binding signal (PBM E-score (-0.5 to 0.5)) [5]: 0.493
14 | ATTAGTCA (double strand) [8-mer ATTAGTCA] | – | – | binding signal (PBM E-score (-0.5 to 0.5)) [2]: 0.491
15 | TATCCGGA (double strand) [8-mer TATCCGGA] | – | 0.454 | –
16 | CTTACGTA (double strand) [8-mer CTTACGTA] | 0.472 | – | –

Row | Sequence | binding signal (PBM E-score (-0.5 to 0.5)) [1] | binding signal (PBM E-score (-0.5 to 0.5)) [3] | other results
17 | TGACATAA (double strand) [8-mer TGACATAA] | 0.462 | – | –
18 | CCGGAAAA (double strand) [8-mer CCGGAAAA] | – | 0.46 | –
19 | ACTCCGGA (double strand) [8-mer ACTCCGGA] | – | 0.459 | binding signal (PBM E-score (-0.5 to 0.5)) [6]: 0.495
20 | ATTTGTCA (double strand) [8-mer ATTTGTCA] | – | – | binding signal (PBM E-score (-0.5 to 0.5)) [2]: 0.465
21 | ATTACGTA (double strand) [8-mer ATTACGTA] | 0.49 | – | binding signal (PBM E-score (-0.5 to 0.5)) [5]: 0.497; binding signal (PBM E-score (-0.5 to 0.5)) [4]: 0.478
22 | TTCCGGAA (double strand) [8-mer TTCCGGAA] | – | 0.467 | binding signal (PBM E-score (-0.5 to 0.5)) [7]: 0.492
23 | CTTAGTAA (double strand) [8-mer CTTAGTAA] | – | – | binding signal (PBM E-score (-0.5 to 0.5)) [2]: 0.471
24 | ATTACTAA (double strand) [8-mer ATTACTAA] | – | – | binding signal (PBM E-score (-0.5 to 0.5)) [2]: 0.492; binding signal (PBM E-score (-0.5 to 0.5)) [4]: 0.479
25 | ATTAATAA (double strand) [8-mer ATTAATAA] | – | – | binding signal (PBM E-score (-0.5 to 0.5)) [2]: 0.46
26 | ACGTAATC (double strand) [8-mer ACGTAATC] | 0.496 | – | binding signal (PBM E-score (-0.5 to 0.5)) [4]: 0.462
27 | CGTAATCA (double strand) [8-mer CGTAATCA] | 0.458 | – | –
28 | TCCGCGGA (double strand) [8-mer TCCGCGGA] | – | 0.481 | binding signal (PBM E-score (-0.5 to 0.5)) [7]: 0.5
29 | TTACATAA (double strand) [8-mer TTACATAA] | 0.488 | – | –
30 | GTCCGGAC (double strand) [8-mer GTCCGGAC] | – | 0.464 | –
31 | ACGTAAGC (double strand) [8-mer ACGTAAGC] | 0.483 | – | –

Source: PMC3334620
